Measured values: US20140134170A1, “USE OF INHIBITORS OF EGFR-FAMILY RECEPTORS IN THE TREATMENT OF HORMONE REFRACTORY BREAST CANCERS” (MERRIMACK PHARMACEUTICALS, INC., priority 2011, published 2014)

B1: MM-121: fully human anti-ErbB3 monoclonal antibody; VH and VL SEQ ID NOs: 1 and 2; heavy and light chains SEQ ID NOs 42 and 43 (antibody, listed as Homo sapiens)
heavy: EVQLLESGGGLVQPGGSLRLSCAASGFTFSHYVMAWVRQAPGKGLEWVSSISSSGGWTLYADSVKGRFTISRDNSKNTLYLQMNSLRAEDTAVYYCTRGLKMATIFDYWGQGTLVTVSSASTKGPSVFPLAPCSRSTSESTAALGCLVKDYFPEPVTVSWNSGALTSGVHTFPAVLQSSGLYSLSSVVTVPSSNFGTQTYTCNVDHKPSNTKVDKTVERKCCVECPPCPAPPVAGPSVFLFPPKPKDTLMISRTPEVTCVVVDVSHEDPEVQFNWYVDGVEVHNAKTKPREEQFNSTFRVVSVLTVVHQDWLNGKEYKCKVSNKGLPAPIEKTISKTKGQPREPQVYTLPPSREEMTKNQVSLTCLVKGFYPSDIAVEWESNGQPENNYKTTPPMLDSDGSFFLYSKLTVDKSRWQQGNVFSCSVMHEALHNHYTQKSLSLSPGK
light: QSALTQPASVSGSPGQSITISCTGTSSDVGSYNVVSWYQQHPGKAPKLIIYEVSQRPSGVSNRFSGSKSGNTASLTISGLQTEDEADYYCCSYAGSSIFVIFGGGTKVTVLGQPKAAPSVTLFPPSSEELQANKATLVCLVSDFYPGAVTVAWKADGSPVKVGVETTKPSKQSNNKYAASSYLSLTPEQWKSHRSYSCRVTHEGSTVEKTVAPAECS

Tests used:
[1] = system: MCF-7CA tumors; test: Letrozole-resistant MCF-7CA intratumoral aromatase xenograft model; assay type: in vivo, mice; details: for tumor growth during initial treatment: MM-121 600 μg Q3D i.p., letrozole 10 μg/mouse/day, treatment from the start; for tumor volume after acquired letrozole resistance: letrozole-resistant tumors re-grouped at about 14 weeks, followed to 19 weeks
Procedure: To investigate the mechanism of AI resistance, a xenograft model was developed that corresponds to ER+ postmenopausal breast cancer. Tumors for this intratumoral aromatase xenograft model are grown from MCF7 human breast adenocarcinoma cells that have been stably transfected with a human placental aromatase gene to provide a non-ovarian source of estrogen production in ovariectomized athymic mice (MCF-7CA, see e.g. Brodie et al., Clinical Cancer Research 884s Vol. 11, 884s-888s, Jan. 15, 2005 (Suppl.)). Sufficient estrogen is produced (from aromatization of injected androstenedione) by the MCF7-CA cells to stimulate their proliferation and tumor formation. This is a model of a postmenopausal breast cancer patient with tumors that express aromatase and are free of gonadotropin feedback regulation.
MCF-7CA cells were cultured in Eagle's minimum essential medium containing 5% fetal bovine serum and neomycin. The culture medium was changed twice weekly. Subconfluent MCF-7CA cells were scraped into Hank's solution and centrifuged at 1,000 rpm for 2 min at 4° C. The cells were then resuspended in Matrigel™ (10 mg/ml) to make a cell suspension of 2-5×10^7 cells/ml. Ovariectomized female BALB/c athymic mice 4-6 weeks of age (20-22 g body weight) were housed in a pathogen-free environment under controlled conditions of light and humidity and received food and water ad libitum. Each mouse was inoculated subcutaneously (s.c.) with 0.1 ml of the cell suspension. Animals were then injected s.c. daily with 0.1 mg androstenedione/mouse. Growth rates were determined by measuring the tumors with calipers weekly. Tumor volumes were calculated according to the formula for a sphere (4/3 r12. r 2). When tumors reached a measurable size, mice were divided into groups of 10 animals with equivalent tumor volumes (300 mm^3). Mice were treated with 0.1 ml compounds in 0.3% hydroxypropylcellulose (HPC) for 6 weeks.
Tumors were measured weekly and tumor volume was calculated. Mice were sacrificed if tumors continued to grow to volumes of greater than about 1400-1700 mm^3.

[2] = target: T1, ErbB3 (pErbB3) (Homo sapiens, UniProt P21860); test: Western blot for phosphorylated ErbB3 in ligand-stimulated MCF7 cells; assay type: cell-based; details: for phosphorylation of ErbB3 in stimulated cells: MCF7 cells without MM-121, stimulated 30 minutes, betacellulin relative to heregulin
T1 construct: endogenous in cells; host or cells: MCF7
Procedure: (§1) FIG. 1 comprises images of western blots of a gel of lysates from untreated control cells (“C”), cells pretreated with (“MM121”) or without pretreatment with MM-121 that were stimulated with heregulin beta 1 (“HRG”), betacellulin (“BTC”), or estrogen (“E2”).
(§2) MCF7 cells are either untreated or pretreated with MM-121 (250 nM) for 1 hour. Cells are then stimulated with heregulin betal (EGF domain, 10 nM R&D systems), betacellulin (20 nM, R&D systems) or estrogen (beta estradiol—100 nM, Sigma) for 30 minutes, or left unstimulated. Lysates of the cells are analyzed by western blot probed for pER and for pErbB3.
(§3) Cells were either untreated or pretreated with MM-121. Untreated and pretreated cells were stimulated with heregulin, betacellulin, or estrogen. Cell lysates were analyzed by western blot for phosphorylated forms of ErbB3 and estrogen receptor.

[3] = system: estrogen receptor alpha (pER, ser 167 and ser 118); test: Western blot/densitometry for phosphorylated estrogen receptor in ligand-stimulated MCF7 cells; assay type: cell-based, human; details: for phosphorylation of the estrogen receptor in stimulated cells: MCF7 cells without MM-121, stimulated 30 minutes, betacellulin relative to heregulin
Excerpt: as §1
FIG. 2 is a graph showing densitometry results from the relevant (pER) band in each of the control (“Con.”), heregulin (“HRG”), betacellulin (“BTC”), heregulin plus MM-121 (“HRG+MM121”) and betacellulin plus MM-121 (“BTC+MM121”) lanes in FIG. 1. Band density was normalized to GAPDH density and the normalized density (Y-axis) is shown for control and stimulated cells (both with and without MM-121 pretreatment) as indicated on the X-axis. The arrowhead between the HRG and BTC lanes indicates the pER band in the HRG lane.
as §2, §3

[4] = system: TAMR-1, TAMR-7, or TAMR-8 cells (tamoxifen-resistant human mammary carcinoma xenografts); test: Tamoxifen-resistant MCF7 variant xenografts, MM-121 monotherapy; assay type: in vivo; details: 600 μg per mouse IP every three days; TAMR xenografts in nude mice
Procedure: Analyses of the anti-tumor efficacy and tolerability of MM-121 treatment of ER+ hormone refractory mammary tumor-bearing mice are carried out using xenografts of tamoxifen-resistant variants of MCF7 human mammary carcinoma cells. Tamoxifen-resistant human mammary carcinoma cell lines TAMR-1, TAMR-7, and TAMR-8 cells are obtained from the laboratory of A. E. Lykkesfeldt (Department of Tumor Endocrinology, Division for Cancer Biology, Danish Cancer Society. Strandboulevarden 49, DK-2100 Copenhagen 0, Denmark). These are grown as xenografts in female athymic nu+/nu+ nude mice obtained from Charles River Laboratories International. […]
To investigate anti-tumor efficacy in monotherapy, MM-121 or vehicle control (100 μL) is given to tumor-bearing mice (i.e., after 14 days of tumor growth following injection of cells) at 600 μg per mouse (MM-121 as a 6 mg/mL solution in PBS) by IP injection every three days. […] Efficacy is determined by comparing tumor growth between the antibody-treated mice and the vehicle control mice and is expressed as the experimental to control ratio of median relative tumor volumes (T/C value). […]
Mice are randomized and therapy begins when a sufficient number of individual tumors have grown to a volume of approximately 200 mm^3. Tumors are measured (L x W) by digital caliper measurement and the tumor volume is calculated using the formula π/6 (W^2×L). […]

Molecule | tumor growth during initial treatment [1] | time to letrozole resistance (tumor volume increased to 600 mm^3) ([1]; daily letrozole 10 μg/mouse/day) | tumor volume after acquired letrozole resistance [1] | phosphorylation of ErbB3 in stimulated cells [2] | phosphorylation of the estrogen receptor in stimulated cells [3] | level of ER phosphorylation relative to estrogen stimulation ([3]; MCF7 cells, heregulin 10 nM vs beta estradiol 100 nM, 30 minutes) | reduction in the amount of pErbB3 ([2]; MCF7 cells pretreated with MM-121 250 nM for 1 hour, heregulin 10 nM for 30 minutes) | tumor growth [4] | reduction in the amount of pER ([3]; MCF7 cells pretreated with MM-121 250 nM for 1 hour, heregulin 10 nM for 30 minutes, densitometry normalized to GAPDH)
N#Cc1ccc(C(c2ccc(C#N)cc2)n2cncn2)cc1 [letrozole] | progressed more slowly | about 14 weeks | continued to increase in volume over time |  |  |  |  |  | 
betacellulin: betacellulin (R&D systems), EGF-like stimulating ligand |  |  |  | to a lesser extent (about ⅔ less) | to a lesser extent (about ⅔ less) |  |  |  | 
heregulin: heregulin beta 1 (EGF domain, R&D systems), stimulating ligand |  |  |  | exhibited phosphorylation of both the estrogen receptor and ErbB3 | exhibited phosphorylation of both the estrogen receptor and ErbB3 | at least four-fold |  |  | 
B1 | grew rapidly over the course of 5 weeks |  | continued to increase in volume over time |  |  |  | about ⅔ | inhibits or stops tumor growth, and in some cases reduces tumor size | about ⅔
